In paper PMC2841749:

Biological target: native CTF cleaved from full-length rCav2.1 proteins
Experiment: SDS-PAGE under mildly denaturing conditions with immunoblot

stoichiometry N: 2
Substance: native CTF cleaved from full-length rCav2.1 proteins
